Measured values: paper PMC13247719
Where two headings read alike, the source gives them in different places.

What was measured:
Experiment in all cases: SPR
[1] = molecular target: T1, LIN28A I167A (mouse, UniProt Q8K3Y3 1-209, I167A)
T1 sequence: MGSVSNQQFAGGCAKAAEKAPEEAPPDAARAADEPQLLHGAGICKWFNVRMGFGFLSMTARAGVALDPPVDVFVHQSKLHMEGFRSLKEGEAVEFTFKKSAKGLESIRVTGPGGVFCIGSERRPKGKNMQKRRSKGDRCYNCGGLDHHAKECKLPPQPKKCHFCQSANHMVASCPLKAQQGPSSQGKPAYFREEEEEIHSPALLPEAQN

[2] = molecular target: T2, LIN28A (mouse, UniProt Q8K3Y3 1-209)
T2 sequence: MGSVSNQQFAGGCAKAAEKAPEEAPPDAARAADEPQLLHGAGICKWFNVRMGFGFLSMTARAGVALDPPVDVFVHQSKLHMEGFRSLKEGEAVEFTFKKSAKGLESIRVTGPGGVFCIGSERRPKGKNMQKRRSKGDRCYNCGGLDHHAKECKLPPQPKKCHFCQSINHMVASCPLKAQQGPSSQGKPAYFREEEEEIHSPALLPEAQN

[3] = molecular target: T3, LIN28A Y140A (mouse, UniProt Q8K3Y3 1-209, Y140A)
T3 sequence: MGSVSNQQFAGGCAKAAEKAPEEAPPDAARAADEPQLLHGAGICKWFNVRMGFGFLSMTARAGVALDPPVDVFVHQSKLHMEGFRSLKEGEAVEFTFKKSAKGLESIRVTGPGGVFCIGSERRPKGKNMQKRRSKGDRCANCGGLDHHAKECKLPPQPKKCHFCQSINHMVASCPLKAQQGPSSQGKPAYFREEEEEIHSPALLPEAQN

[4] = molecular target: T4, LIN28A H148A (mouse, UniProt Q8K3Y3 1-209, H148A)
T4 sequence: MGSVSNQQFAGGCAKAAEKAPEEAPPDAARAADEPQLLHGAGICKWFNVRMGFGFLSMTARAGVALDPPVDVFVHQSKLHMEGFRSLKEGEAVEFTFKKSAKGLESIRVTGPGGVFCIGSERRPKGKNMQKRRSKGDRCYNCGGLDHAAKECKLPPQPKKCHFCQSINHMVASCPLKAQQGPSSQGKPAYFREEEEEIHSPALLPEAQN

[5] = molecular target: T5, LIN28A CSD (mouse, UniProt Q8K3Y3 16-136)
T5 sequence: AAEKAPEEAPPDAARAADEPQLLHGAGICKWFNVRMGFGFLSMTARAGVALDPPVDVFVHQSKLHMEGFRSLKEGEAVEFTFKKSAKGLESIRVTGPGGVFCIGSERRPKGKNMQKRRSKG

[6] = molecular target: T6, LIN28A H162A (mouse, UniProt Q8K3Y3 1-209, H162A)
T6 sequence: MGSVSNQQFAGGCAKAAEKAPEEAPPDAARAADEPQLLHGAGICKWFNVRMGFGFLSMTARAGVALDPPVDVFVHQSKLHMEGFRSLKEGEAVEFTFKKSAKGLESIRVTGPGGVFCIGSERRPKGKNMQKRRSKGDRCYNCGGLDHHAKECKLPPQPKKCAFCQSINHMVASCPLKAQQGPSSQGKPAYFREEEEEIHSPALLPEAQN

[7] = molecular target: T2, LIN28A; remark: listed apart in the source

B1: preE-let-7f-1 biotin (structured_RNA)
RNA: GGGGUAGUGAUUUUACCCUGUUUAGGAGAU
Kd [1]: 99.5 nM
Kd [2]: 92 nM
Kd [3]: 410 nM
Kd [4]: 276 nM
Kd [5]: 808 nM
Kd [6]: 382 nM

B2: preE-let-7f-1 UGAG (structured_RNA)
RNA: GGGGUAGUGAUUUUACCCUGUUUAUGAGAU
Kd [7]: 387 nM
